This data set has as its system anti-MPT64 antibody (purified rabbit antibody to recombinant M. tuberculosis H37Rv MPT64) (rabbit). Put plainly: ELISA. To be noted: 20 mM Hepes pH 7.35, 120 mM KCl, 1 mM CaCl2, 1 mM MgCl2 ([…].

The results in this text go back to PMC3410803.

“GGGAGCTCAGAATAAACGCTCAAAAACGCTCAAGAGGCCCGGATCTTCGACATGAGGCCCGGATC [MPT64-A1]”: the binding signal worked out at 1.62 OD450.
